From patent publication US20240199727A1 (INVETX, published 2024)

How the values were obtained:
[1] = target: T1, canine NGF tagged at the C-terminus with the Flag tag (canine, UniProt A0A8I3PYI3 122-241); test: SPR Biacore T200; antibody captured on protein A chip, NGF analyte
T1 construct: Baculovirus expression
T1 sequence (A0A8I3PYI3 entry or part of it): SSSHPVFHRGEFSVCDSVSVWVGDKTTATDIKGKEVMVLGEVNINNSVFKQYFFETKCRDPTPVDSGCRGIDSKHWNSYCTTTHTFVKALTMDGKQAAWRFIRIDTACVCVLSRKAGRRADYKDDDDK
Description: The running buffer was HBS-EP buffer (10 mM HEPES, pH 7.4, 150 mM NaCl, 3 mM EDTA, 0.005% tween 20) and the instrument temperature was set at 25 °C. […] The binding signals were corrected for the blank and the resulting sensorgram (FIG. 5) was used to determine the rate constants (kₐ and kd) and binding affinity (KD) using a one-to-one binding model with the BIAEVAL software.

[2] = target: canine NGF tagged at the C-terminus with the Flag tag (canine); test: SPR, Biacore T200; antibody captured on anti-feline CM5 chip, NGF analyte, 1:1 fit
[3] = target: T2, canine NGF tagged at the C-terminus with the Flag tag (canine, UniProt A0A8I3PYI3 122-241); test: SPR competition; Ab pre-incubated with 50 nM NGF at Ab to NGF ratio 1 to 1, injected over captured feline p75 (competitor)
T2 construct: mature; also called feline NGF (processed form identical)
T2 sequence (A0A8I3PYI3 entry or part of it): as above

[4] = target: T2, canine NGF tagged at the C-terminus …; test: SPR competition; Ab pre-incubated with 50 nM NGF at Ab to NGF ratio 5 to 1, injected over captured feline p75 (competitor)
[5] = target: T2, canine NGF tagged at the C-terminus …; test: SPR competition; Ab pre-incubated with 10 nM NGF at Ab to NGF ratio 10 to 1, injected over captured feline TrkA (competitor)
[6] = target: T2, canine NGF tagged at the C-terminus …; test: SPR competition; Ab pre-incubated with 10 nM NGF at Ab to NGF ratio 50 to 1, injected over captured feline TrkA (competitor)

Sequence of canine NGF tagged at the C-terminus with the Flag tag (canine) (chain, as listed by the source): as the sequence (A0A8I3PYI3 entry or part of it) above

B1: canine 2166 chimeric antibody (antibody, V domains shown)
VH: QVQLKESGPGLVQPSQTLSLTCTVSGLSLTSNSVSWIRQPPGKGLEWMGVIWSNGGTDYNSAIESRLSINRDTSKSQVFLKMNSLQPEDTAMYFCASIYYYDADYLHWYFDFWGPGTMVTVSS
VL: DIQMTQSPASLSASLGETVSIECLASEGISNSLAWYQLKPGKSPQFLIYATSSLQDGVPSRFSGSGSGTQYSLKISGMQPEDEGVYYCQQGYKFPLTFGSGTKLKIKR
notes: also called canine chimeric antibody
koff [1]: 3.5e-06 s⁻¹

B2: SC-184_76 (antibody, from a related filing, V domains shown)
VH: DVQLVESGGDLVKPGGSLRLTCVASGLSLTSDSMSWVRQAPGKGLQWVSTLWSNGGTYYTDSVKGRFTISKDNAENTLYLQMNNLKTEDTATYYCASIYYYEADYLHWYFDFWGQGALVTVSS
VL: EIQMTQSPTSLSASVGDRVTITCRASEGIANNLSWYQQTPGKAPKLLIYATSNLHSGVPSRFSGSGSGTDFTLTISSLQPEDFATYYCQQGFKWPLTFGGGTKLEIT
Kd [2]: 0.472 nM
koff [2]: 0.000396 s⁻¹
kon [2]: 838000 M⁻¹ s⁻¹

B3: SC-184_76-Arg (antibody, V domains shown)
VH: DVQLVESGGDLVKPGGSLRLTCVASGLSLTSDSMSWVRQAPGKGLQWVSTLWSNRGTYYTDSVKGRFTISKDNAENTLYLQMNNLKTEDTATYYCASIYYYEADYLHWYFDFWGQGALVTVSS
VL: EIQMTQSPTSLSASVGDRVTITCRASEGIANNLSWYQQTPGKAPKLLIYATSNLHSGVPSRFSGSGSGTDFTLTISSLQPEDFATYYCQQGFKWPLTFGGGTKLEIT
% Block [3]: 100%
% Block [4]: 100%
% Block [5]: 99%
% Block [6]: 100%

B4: felinized clone 101 (antibody, V domains shown)
VH: DVQLVESGGDLVKPGGSLRLTCVASGLSLTSSSMSWVRQAPGKGLQWVSTIYSNGGTYYTDSVKGRFTISKDNAENTLYLQMNNLKTEDTATYYCASIYYYDADYLHWYFDFWGQGALVTVSS
VL: EIQMTQSPTSLSASVGDRVTITCRASEGISNNLSWYQQTPGKAPKLLIYATSNLHSGVPSRFSGSGSGTDFTLTISSLQPEDFATYYCQQGYKWPLTFGGGTKLEIT
% Block [3]: 42%
% Block [4]: 87%
% Block [5]: 15%
% Block [6]: 76%

B5: SC-184_110-Arg (antibody, V domains shown)
VH: DVQLVESGGDLVKPGGSLRLTCVASGLSLTSASMSWVRQAPGKGLQWVSTIYSNRGTYYTDSVKGRFTISKDNAENTLYLQMNNLKTEDTATYYCASIYYYEAEYLHWYFDFWGQGALVTVSS
VL: EIQMTQSPTSLSASVGDRVTITCRASEGISKNLSWYQQTPGKAPKLLIYATDNLHSGVPSRFSGSGSGTDFTLTISSLQPEDFATYYCQQGWKWPLTFGGGTKLEIT
% Block [3]: 100%
% Block [4]: 100%
% Block [5]: 100%
% Block [6]: 100%

B6: SC-184_110 (antibody, from a related filing, IgG1a, V domains shown)
VH: DVQLVESGGDLVKPGGSLRLTCVASGLSLTSASMSWVRQAPGKGLQWVSTIYSNGGTYYTDSVKGRFTISKDNAENTLYLQMNNLKTEDTATYYCASIYYYEAEYLHWYFDFWGQGALVTVSS
VL: EIQMTQSPTSLSASVGDRVTITCRASEGISKNLSWYQQTPGKAPKLLIYATDNLHSGVPSRFSGSGSGTDFTLTISSLQPEDFATYYCQQGWKWPLTFGGGTKLEIT
Kd [2]: 0.773 nM
koff [2]: 0.00038 s⁻¹
kon [2]: 492000 M⁻¹ s⁻¹

B7: AHF17602 (antibody, V domains shown)
VH: DVQLVESGGDLVKPGGSLRLTCVASGLSLTSSSMVWVRQAPGKGLQWVSTIYSNRGTYYTDSVKGRFTISKDNAENTLYLQMNNLKTEDTATYYCASIYYYDADYLHWYFDFWGQGALVTVSS
VL: EIQMTQSPTSLSASVGDRVTITCRASEGIANNLSWYQQTPGKAPKLLIYATSNLHSGVPSRFSGSGSGTDFTLTISSLQPEDFATYYCQQGYKWPLTFGGGTKLEIT
% Block [3]: 100%
% Block [4]: 100%
% Block [5]: 99%
% Block [6]: 100%
